Laboratory results: US20250313627A1 (FUSE BIOTHERAPEUTICS, published 2025)
Where a chain is given by its changes, count along the chain named. Like-named read-outs stand apart in the source and are kept apart here.

B1: FUSE-489 (h5A1-Ac13) (bispecific antibody, human IgG1, lambda, L234A L235A)
heavy: EVQLVESGGGLVQPGGSLRLSCAASGFTFSTYAMNWVRQAPGKGLEWVARIRSKYNNYATYYADSVKDRFTISRDDSKNTLYLQMNSLRAEDTAVYYCARHGNFGNSYVSWFAYWGQGTMVTVSSASTKGPSVFPLAPSSKSTSGGTAALGCLVKDYFPEPVTVSWNSGALTSGVHTFPAVLQSSGLYSLSSVVTVPSSSLGTQTYICNVNHKPSNTKVDKKVEPKSCDKTHTCPPCPAPEAAGGPSVFLFPPKPKDTLMISRTPEVTCVVVDVSHEDPEVKFNWYVDGVEVHNAKTKPREEQYNSTYRVVSVLTVLHQDWLNGKEYKCKVSNKALPAPIEKTISKAKGQPREPQVYTLPPSREEMTKNQVSLSCAVKGFYPSDIAVEWESNGQPENNYKTTPPVLDSDGSFFLVSKLTVDKSRWQQGNVFSCSVMHEALHNRFTQKSLSLSPGK
chain: QVQLQESGGGLVQPGGSLRLSCTASGYTNRLKCMGWVRQAPGKEREEVATISTGTGNTYYADSVKGRFTISRDNSKNTLYLQMNSLRAEDTAMYYCAADVRPDGTTCHYNSGGQGTQVTVSSEPKSSDKTHTCPPCPAPEAAGGPSVFLFPPKPKDTLMISRTPEVTCVVVDVSHEDPEVKFNWYVDGVEVHNAKTKPREEQYNSTYRVVSVLTVLHQDWLNGKEYKCKVSNKALPAPIEKTISKAKGQPREPQVYTLPPSREEMTKNQVSLWCLVKGFYPSDIAVEWESNGQPENNYKTTPPVLDSDGSFFLYSKLTVDKSRWQQGNVFSCSVMHEALHNHYTQKSLSLSPGK
light: QAVVTQEPSLTVSPGGTVTLTCRSSTGAVTTSNYANWVQQKPGQAPRGLIGGTNKRAPGTPARFSGSLLGGKAALTLSGVQPEDEAEYYCALWYSNLWVFGGGTKLTVLGQPKAAPSVTLFPPSSEELQANKATLVCLISDFYPGAVTVAWKADSSPVKAGVETTTPSKQSNNKYAASSYLSLTPEQWKSHRSYSCQVTHEGSTVEKTVAPTECSGGGGSGGGGSGGGGSGGGGSQVQLQESGGGLVQPGGSLRLSCTASGYTNRLKCMGWVRQAPGKEREEVATISTGTGNTYYADSVKGRFTISRDNSKNTLYLQMNSLRAEDTAMYYCAADVRPDGTTCHYNSGGQGTQVTVSS
notes: Format Ac13
B2: FUSE-497 (h5A1-Ac13) (bispecific antibody, human IgG1, lambda, L234A L235A)
heavy: B1 heavy
chain: EVQLLESGGGLVPRGGSLRLSCTASGYTNRLKCMGWFRQAPGKEREEIATISTGTGNTYYADSVKGRFTISRDNSRNTLYLQMKTLRAEDTAVYYCAADVRPDGTTCHYNSWGQGTQVTVSSEPKSSDKTHTCPPCPAPEAAGGPSVFLFPPKPKDTLMISRTPEVTCVVVDVSHEDPEVKFNWYVDGVEVHNAKTKPREEQYNSTYRVVSVLTVLHQDWLNGKEYKCKVSNKALPAPIEKTISKAKGQPREPQVYTLPPSREEMTKNQVSLWCLVKGFYPSDIAVEWESNGQPENNYKTTPPVLDSDGSFFLYSKLTVDKSRWQQGNVFSCSVMHEALHNHYTQKSLSLSPGK
light: QAVVTQEPSLTVSPGGTVTLTCRSSTGAVTTSNYANWVQQKPGQAPRGLIGGTNKRAPGTPARFSGSLLGGKAALTLSGVQPEDEAEYYCALWYSNLWVFGGGTKLTVLGQPKAAPSVTLFPPSSEELQANKATLVCLISDFYPGAVTVAWKADSSPVKAGVETTTPSKQSNNKYAASSYLSLTPEQWKSHRSYSCQVTHEGSTVEKTVAPTECSGGGGSGGGGSGGGGSGGGGSEVQLLESGGGLVPRGGSLRLSCTASGYTNRLKCMGWFRQAPGKEREEIATISTGTGNTYYADSVKGRFTISRDNSRNTLYLQMKTLRAEDTAVYYCAADVRPDGTTCHYNSWGQGTQVTVSS
notes: Format Ac13
B3: FUSE-498 (h5A1-Ac13) (bispecific antibody, human IgG1, lambda, L234A L235A)
heavy: B1 heavy
chain: B1 chain with Q1E, Q5V, V37F, V48I, I70F, M93V
light: B1 light with Q236E, Q240V, V272F, V283I, I305F, M328V
notes: Format Ac13
B4: FUSE-570 (h5A1-FA18 Fc) (Fc fusion)
chain: QVQLVESGGGLVQPGGSLRLSCSASGYTNRLKCMGWFRQAPGKEREEIATISSGTGNTYYADSVKGRFTFSRDNSKNTLYLQMNSLRAEDTGMYYCAADVRPDGTTCHYNSGGQGTQVTVSS
notes: VHH-Fc format; not shown: Fc of the VHH-Fc format
B5: FUSE-597 (h5A1-HK2 Fc) (Fc fusion)
chain: EVQLLESGGGLVQPGGSLRLSCAASGYTNRLKCMGWFRQAPGKERELASISTGTGNTYYADSVKGRFTISRDGSKNTLYLQMNSLRAEDTAVYYCAADVRPDGTTCHYNSRGQGTLVTVSS
notes: as for B4
B6: FUSE-524 (h5A1-HK1_Fc) (Fc fusion)
chain: B5 chain with G73N, R86K
notes: VHH-Fc format; also called humanized clone 5A1-HK1; 5A1-H1; not shown: Fc of the VHH-Fc format
B7: FUSE-598 (h5A1-HK6 Fc) (Fc fusion)
chain: B5 chain with R71Q
notes: as for B4
B8: FUSE-569 (h5A1-FA17 Fc) (Fc fusion)
chain: B5 chain with E1Q, L5V, A23S, G73N, E88D, R111W, L116Q
notes: as for B4
B9: FUSE-563 (h5A1-FA11 Fc) (Fc fusion)
chain: EVQLLESGGGLVQPGGSLKLSCTASGYTNRLKCMGWFRQAPGKEREEIATISTGTGNTYYADSVKGRFTISQDRSKNTLYLQMNSLRAEDTAVYYCAADVRPDGTTCHYNSWGQGTLVTVSS
notes: as for B4

Assays:
[1] = biological target: T1, human ROR1 (Receptor Tyrosine Kinase-Like Orphan Receptor 1) on the cell surface (human, UniProt Q01973 30-937); assay: flow cytometry, B16-F10 cells expressing human ROR1 (high density)
T1 construct: whole, on cells; engineered into B16-F10 (high density) and LS174T (low density) cells; also called B16-F10-ROR1-H; LS174T-ROR1-L
T1 sequence (Q01973 30-937): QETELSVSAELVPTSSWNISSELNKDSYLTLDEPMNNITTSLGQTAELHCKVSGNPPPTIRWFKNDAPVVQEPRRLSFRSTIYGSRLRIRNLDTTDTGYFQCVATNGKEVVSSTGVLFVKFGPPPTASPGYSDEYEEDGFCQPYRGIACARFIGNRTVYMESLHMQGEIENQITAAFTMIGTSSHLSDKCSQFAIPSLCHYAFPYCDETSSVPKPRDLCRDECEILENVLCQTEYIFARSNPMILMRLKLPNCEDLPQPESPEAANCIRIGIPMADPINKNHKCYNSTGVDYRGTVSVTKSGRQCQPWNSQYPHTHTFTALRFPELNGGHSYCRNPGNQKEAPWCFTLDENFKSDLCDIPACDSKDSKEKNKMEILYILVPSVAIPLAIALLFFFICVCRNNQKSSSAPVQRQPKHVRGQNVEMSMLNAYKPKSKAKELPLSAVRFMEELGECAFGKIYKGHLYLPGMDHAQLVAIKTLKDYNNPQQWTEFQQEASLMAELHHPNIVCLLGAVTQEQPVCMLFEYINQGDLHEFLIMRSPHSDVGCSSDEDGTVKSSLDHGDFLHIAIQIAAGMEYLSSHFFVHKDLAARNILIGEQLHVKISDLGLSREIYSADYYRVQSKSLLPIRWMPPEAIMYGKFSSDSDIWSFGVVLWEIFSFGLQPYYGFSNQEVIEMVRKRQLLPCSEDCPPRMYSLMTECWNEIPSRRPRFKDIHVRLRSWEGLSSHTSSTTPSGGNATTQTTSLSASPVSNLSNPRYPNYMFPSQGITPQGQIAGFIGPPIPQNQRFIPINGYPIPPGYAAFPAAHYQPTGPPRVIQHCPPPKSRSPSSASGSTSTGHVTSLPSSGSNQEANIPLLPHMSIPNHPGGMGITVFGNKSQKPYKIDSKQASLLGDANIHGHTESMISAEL
Protocol: (§1) As shown in the tables below, mouse B16-F10 melanoma (Tables 9A-9F) or LS174T human colorectal adenocarcinoma (Tables 9G-9H) cells genetically engineered to express human ROR1 at high and low densities, respectively, were stained for flow cytometric analysis with 100 nM of humanized variants of the ROR1 specific VHHs, 5A1 or 2A11 in either a VHH-Fc format or the Ac13 format shown in FIG. 1. Cells were analyzed on a flow cytometer after the primary test article was fluorescently tagged with a goat anti human IgG-Fc specific PE secondary antibody. The positive control used was PE conjugated anti-human ROR1 clone 2A2. Negative controls included a PE labeled mouse IgG Ab, the secondary antibody only, the combination of a Hen Egg Lysozyme (HEL) specific antibody plus goat anti human IgG-Fc specific PE and Fluorescence Minus One (FMO). Other controls included the non-humanized version of 5A1-Fc (FUSE179), 2A11-Fc (FUSE112) and 5A1-Ac13 (FUSE488). Humanized variants were generated using computational design (FUSE489, FUSE497-498, FUSE563, FUSE569-570, and BI-HU9-VHH11-33), a yeast display library in which mutations were inserted into the Vernier zone residues of human framework indicated in GenBank accession number M99660 (FUSE524-525, FUSE589, FUSE597-598, FUSE537, FUSE661-662, BI-HU9-HK and BI-HU9-HK-1), and a second yeast display library in which mutations were inserted into the Vernier zone residues of human framework indicated in GenBank accession number AWH66715 and amino acid position 103 within CDR3 (FUSE559, FUSE590-596, BI-HU9-VH9-1, FUSE654-655 and FUSE661-662. Affinity matured variants of FUSE559 were also generated using computational design (F22158101-21; Table 9H).

[2] = biological target: T1, human ROR1 (Receptor Tyrosine …); assay: as above; remark: listed apart in the source
Protocol: as §1

[3] = biological target: T1, human ROR1 (Receptor Tyrosine …); assay: as above; remark: listed apart in the source
Protocol: as §1

[4] = biological target: T1, human ROR1 (Receptor Tyrosine …); assay: flow cytometry on B16-F10 cells engineered to express human ROR1, secondary antibody to the IgG1 Fc
Protocol: As shown in FIG. 15 the apparent binding affinity (EC50-binding) of the ROR1 specific VHH-Fc incorporating either the non humanized VHH clone 5A1 (FUSE179; black circle), the humanized clone 5A1-FA9-HK1 (FUSE559; black square) or the humanized clone 5A1-HK1 (FUSE524; black triangle) was calculated. Shown is a non-linear x-y plot of binding to B16-F10 cell engineered to express human ROR1 relative to the concentration of test article used for staining. A Hen Egg Lysozyme (HEL)-specific antibody was used as the negative isotype control. Binding was measured via flow cytometry using a fluorescently labeled secondary antibody specific for the Fc domain of IgG1. A summary table of EC50s and maximum MFI is shown beneath under the graph.

| Binder | MFI [1] | MFI [2] | further results |
| --- | --- | --- | --- |
| B1 | 1060 | – | – |
| B2 | 811 | – | – |
| B3 | 1360 | – | – |
| B4 | – | 583 | – |
| B5 | – | – | MFI [3]: 10100 |
| B6 | 6470 | – | EC50 [4]: 2.74 nM; Max MFI [4]: 7080 MFI |
| B7 | – | – | MFI [3]: 9560 |
| B8 | – | 590 | – |
| B9 | – | 388 | – |
